# Experimental data published in paper PMC4847859.
# System: CdpR (Pseudomonas aeruginosa PAO1)
# Assay: EMSA
substance,measurement,value
pqsH-p (pqsH-cdpR intergenic region),K half,500 nM
